From the RNAGym collection of RNA variant scans (doi:10.1073/pnas.2313332121)

B1: TPR t1 (parent)
chain: GACCAAUCUGCCCUCAGAGCUCGAGAACAUCUUCGGAUGCAGAGGAGGCAGGCUUCGGUGGCGCGAUAGCGCCAACGUCCUCAACCUCCAAUGCAUCCCACCACAUGAUGAUGCCUGAAGAGCCUUGGUUUUUUG

Variants of: B1
Test: polymerase ribozyme fitness, log enrichment relative to wild type (log ratio); higher = more active; in vitro selection for triplet polymerase activity
Procedure, shortened: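 PCR was used to build mutant libraries for each subunit of a heterodimeric triplet polymerase ribozyme, which were then transcribed. A single in vitro selection round, in triplicate, used a frozen incubation at −7 °C and recovered extended constructs by gel excision, streptavidin beads and RT-PCR. Fitness is the logarithm of genotype enrichment relative to wild-type enrichment, averaged over replicates with inverse-variance weights. The logarithm is base 2, and after Illumina sequencing only genotypes with ≥10 input reads and ≥1 read per output were kept.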

In order of falling “polymerase ribozyme fitness (log ratio)” value:
1. C56A U112A  1.46
2. C53U G57U A121C  1.4
3. U54C C73G A121U  1.17
4. C56A G69U C73U C124A  1.14
5. C56U C124U U133G  1.14
6. U55G C73G  1
7. U55G A121C  0.81
8. U55C G57U A66C C123G U132A  0.759
9. C56G G120C  0.755
10. U55A C73A  0.5
11. C56A C124A G127A  0.497
12. C56U C104U  0.166
13. U54A C101U G120A  0.15
14. C56A C76G  0.138
15. U55C G69U A90G U112C A119U  0.0646
16. C56A G60U  0.0473
17. U55G  0.0266
18. U55C C72G C79U  0.018
19. C53U U112G  -0.00138
20. C53U U78C G120C  -0.0303
21. U55A C62U C72U G120A  -0.106
22. U54A C64U  -0.112
23. C53U U78G  -0.118
24. C56A G120U  -0.119
25. U55A  -0.12
26. C53U C73A  -0.168
27. C53U C73U  -0.178
28. C56U A75U C86U  -0.18
29. U55A U133A  -0.185
30. U54G C82A  -0.235
31. C56G U96A  -0.238
32. U54C C70U  -0.253
33. C56U A90G U125A  -0.318
34. C56G U87C  -0.336
35. U55G U78A  -0.34
36. U55G A100C  -0.346
37. U54A G61A C124A G128U  -0.356
38. U55C C88U  -0.394
39. U54C G60U U133G  -0.398
40. U54G U132C  -0.456
41. U55G C88G  -0.483
42. U55C A66U A75U  -0.518
43. U55C  -0.521
44. C56A A118G  -0.557
45. C56A C72A  -0.579
46. U55G U130G  -0.58
47. C56U A83G  -0.676
48. C56U A90C G110A A111G U132A  -0.678
49. C56G G69U  -0.682
50. C56A U106A  -0.695
51. C56G C64U  -0.732
52. C56U C73U  -0.755
53. C53U U78C  -0.767
54. C56G A84G G120A  -0.771
55. C53U C124A G128C  -0.772
56. C53U U54G G117A  -0.796
57. C53U G71C C82G  -0.812
58. U54G C80U U133A  -0.863
59. C56G U87A G120A  -0.872
60. C56A A83G A84C G135C  -0.872
61. C56G U129C  -0.877
62. U55A G63A U78A  -0.969
63. U54G C86A U129G  -0.985
64. U54G A95U  -0.988
65. C56U C89A  -1.04
66. C56A C101U G110A  -1.05
67. U54G C85G U133A  -1.09
68. U54A C115U  -1.11
69. C56U C73A A100U  -1.12
70. C56U C80U  -1.17
71. C53U C114A  -1.2
72. U54A C72U C97U  -1.24
73. C56A C115U U130A  -1.24
74. U55A C73U A83G  -1.24
75. C56G U96G U125A  -1.29
76. U54A C89G  -1.31
77. C56A C97U  -1.33
78. C53U U78G C79A  -1.4
79. C56U G117A  -1.46
80. C56A G127A  -1.47
81. U55C G61A C104A  -1.51
82. C56A C72U C82U C85U  -1.52
83. U54A U55A G61A A74G  -1.53
84. C56G U125A  -1.54
85. C56A A90C  -1.57
86. C53U U81C C88A  -1.58
87. C56A A83G  -1.6
88. C53U U81A  -1.63
89. C53U U59C U96A  -1.65
90. U54C G77U C79A C88U  -1.68
91. C56A C64U C124U G128A  -1.71
92. U55G C56A A83G  -1.72
93. U54G C62U U81A  -1.77
94. C53U C85U  -1.78
95. C56U C88U C114A G120A  -1.81
96. C53U C86G C115U  -1.83
97. C56U G71U  -1.85
98. C56G C94G  -1.87
99. C56G G113C  -1.92
100. C56A U96G G113A  -1.95
101. C56U C101G  -2.07
102. C53U C79A C85U C88U  -2.08
103. U54G C79A  -2.11
104. U54A G60C G113C  -2.11
105. C56A G93U  -2.21
106. C56U G93A C97U U129A  -2.25
107. U55G C70G  -2.34
108. U55G C56U C88G  -2.34
109. C56G G71U A121C  -2.41
110. U55C G71A A90G G113U  -2.42
111. C56A C73A C94U G113A  -2.48
112. C56U C115G  -2.56
113. C56A C79G G93A  -2.59
114. C53U G57U C62G  -2.6
115. C53U G60A C73A U106G C123G U126A  -2.6
116. C53U G69A  -2.64
117. U54A C70U G113U C114G A121C  -2.74
118. C56U G71A  -2.84
119. C56U C76A  -2.9
120. C56G C72G C115A  -2.98
121. C56U G113U G120A  -3.03
122. U54A C70G C86U  -3.2
123. C56A G60A G69C  -3.21
124. C56A G57U U78C G113C  -3.22
125. C56G C62G  -3.35
126. U54G G93A A111U  -3.35
127. U54G G60U  -3.4
128. C56A C88U A95C A108G  -3.49
129. C56G G110A U116G  -3.62
130. C56G C114G  -3.74
131. C56A G107A  -3.75
132. C56U G60U U87A  -3.76
133. U54C C94A G113U  -3.83
134. C56U U96G C101A G113C  -3.97
135. U54G U112A G117C  -4.03
136. C56A G61A U92C  -4.04
137. C56A C70U U92G  -4.08
138. U55G C82U A100U G113U  -4.11
139. C56U G63U  -4.18
140. C56A C97U G113U  -4.2
141. U55G C72G A100C A111U  -4.23
142. C53U U109G  -4.32
143. U54G C82A A91C C115G  -4.39
144. C56U G61A  -4.41
145. C56U C80A C114U  -4.51
146. U54C C79G U125C  -4.66
147. C53U C102U C114A  -4.76
148. C56G C88U C94A G110U  -4.78
149. C56U G61U G93A A111U U116C  -4.78
150. C56G G57A G61C A118G  -4.8
151. C56U C82A G110C  -4.8
152. C56U C114A G128A U133G  -4.81
153. U55A C62U C85A A100U C102U  -5.11
154. C56U C62G U112G  -5.4
155. C56A G69A C101U G110A  -5.53
156. U54C C79A C98U C101A  -5.66
157. U54G G71U C79A  -5.67
158. C56A C114U C115U U131C  -5.83
159. U54C G61U G71U C82U A83U C114U  -5.85
160. U55C C82G A91C A105U C123G  -6.04
161. U55C C62U C98A  -6.18
162. U54G C101G C115G U116A  -6.37
163. U54A C79A G93U C114U G117A  -6.48
164. C56G C62U A103U U109G  -6.92
165. U54G G60A U92A G107C G117A  -6.96
166. C56G C99A  -6.98
167. C56G A75G U109C  -7.14
